Experimental findings from article PMC8373667 are described below.

The target of the test is JJS-A6/A11 VHH heterodimer, thioredoxin-fused (alpaca (Vicugna pacos)). Nature of the test: far-Western, overlay or dot blot.

B1: recombinant Cp-P34 (natural protein)
chain: MSGVSRRAVITDPNGVYEGDVNEKGLKHGNGVYKVNTGDVYEGEYSNGLKNGYGVYTWANGDKFEGYYKDDIKWGHGIYRWSNGEVFEGEYVRGVKCGHGIYTWPNGDRFEGEYKDGVKEGFGVYKLATGRIYEGQYSRDMRNGQGTSRYTDGSVYTGEWFDGKEHGHGLLKFSDSSSYEGDFQNGAPNGQGKYTYSNGNYYVGGFKNGLTDGPGSLTFAEDNRVLKANWKDGQVDGDAAIIYPDGGKYTGEVVNGIRQGKGIMTESNGDIFDGEFFRDFRHGEGILTVNGKQKRVKYNMGKKVGLCSC
Regarding B1, the percent of VHH binding to the native target blocked by the recombinant protein worked out at 95.2%.
